Results: patent publication US5445935

Molecular target: tryptophan repressor (TrpR) (UniProt P0A881 P0A881:2-108)
Experiment: FP; dimer-DNA Kd from linked monomer-dimer/DNA binding model (preferred fit; dimer-monomer Kd 3.5 nM); 0.2 nM DNA, 10 mM K phosphate, 0.1 mM EDTA, 10% glycerol, pH

B1: fluorescein-labeled 25-mer trp operator duplex (dsDNA)
DNA 1: CTTGCACTAGTTAACTAGTCAGCAA
DNA 2: TTGCTGACTAGTTAACTAGTGCAAG
Kd: 0.23 nM
